We go through 2 proteins from publication PMC4641749 (Molecular microbiology, 2015).

Where two headings read alike, the source gives them in different places.

Data set [1] deals with the molecule itself. In words: sedimentation assay of polymers.
Data set [2] concerns the molecule itself. Nature of the data set: sedimentation assay of polymers. The source holds these as a separate data set.

B1: FtsZ (wild type, Escherichia coli) (natural protein, E. coli, UniProt P0A9A6 1-383, looked up)
chain: MFEPMELTNDAVIKVIGVGGGGGNAVEHMVRERIEGVEFFAVNTDAQALRKTAVGQTIQIGSGITKGLGAGANPEVGRNAADEDRDALRAALEGADMVFIAAGMGGGTGTGAAPVVAEVAKDLGILTVAVVTKPFNFEGKKRMAFAEQGITELSKHVDSLITIPNDKLLKVLGRGISLLDAFGAANDVLKGAVQGIAELITRPGLMNVDFADVRTVMSEMGYAMMGSGVASGEDRAEEAAEMAISSPLLEDIDLSGARGVLVNITAGFDLRLDEFETVGNTIRAFASDNATVVIGTSLDPDMNDELRVTVVATGIGMDKRPEITLVTNKQVQQPVMDRYQQHGMAPLTQEQKPVAKVVNDNAPQTAKEPDYLDIPAFLRKQAD
On to B1, for which the binding result in data set [1] is “binds”.

B2: FtsZ_(L169R) (Escherichia coli FtsZ with the L169R lesion) (natural protein, E. coli, UniProt P0A9A6 1-383, looked up)
chain: MFEPMELTNDAVIKVIGVGGGGGNAVEHMVRERIEGVEFFAVNTDAQALRKTAVGQTIQIGSGITKGLGAGANPEVGRNAADEDRDALRAALEGADMVFIAAGMGGGTGTGAAPVVAEVAKDLGILTVAVVTKPFNFEGKKRMAFAEQGITELSKHVDSLITIPNDKLRKVLGRGISLLDAFGAANDVLKGAVQGIAELITRPGLMNVDFADVRTVMSEMGYAMMGSGVASGEDRAEEAAEMAISSPLLEDIDLSGARGVLVNITAGFDLRLDEFETVGNTIRAFASDNATVVIGTSLDPDMNDELRVTVVATGIGMDKRPEITLVTNKQVQQPVMDRYQQHGMAPLTQEQKPVAKVVNDNAPQTAKEPDYLDIPAFLRKQAD
Regarding B2, in data set [2], the binding result is given as “binds”.
